In this assay the target is PDF-2180 RBD-hFc (PDF-2180). Nature of the assay: BLI.

B1: ACE2 from Pipistrellus pipistrellus (Ppip ACE2) (receptor)
chain: TTEEEARDFLDKFNSEAENLSHESALASWDYNTNITDENAQKMNEADSKWSDFYKEQSKRAQAFPLQEIQNLTIKLQLQILQQNGSSVLTAEKSKRLSTILTTMSTIYSTGKVCNPNNPQQCFTLSGLEDIMEKSKDYHQRLWVWEGWRSEVGKQLRPLYEEYVVLKNEMARGNNYEDYGDYWRGDYETEGEDGYNYSRNQLMEDVDRIFLEIKPLYEQLHAYVRAKLMNAYPSRISPTGCLPAHLLGDMWGRFWTNLYNLTVPFEQKQNIDVTETMKKQSWDAEKIFKEAEKFYLSVGLYSMTQGFWNNSMLTEPSDGRQVVCHPTAWDLGEDDFRIKMCTKVTMDDFLTAHHEMGHIQYDMAYAKQPYLLRNGANEGFHEAVGEVMSLSVATPKHLKGMGLLPSDFSEDNETEINFLLKQALNIVGTLPFTYMLEKWRWMVFEGKIPKEQWMEKWWEMKREIVGVVEPLPHDETYCDPASLFHVANDYSFIRYFTRTILEFQFQEALCKIAKHEGPLHKCDISNSTEAGKKLKDMLELGKSKPWTYALNQIARTKEMDAKPLLNYFEPLFSWLKKQNGNSVGWSADWSPYSEQSLKVRISLISALGEKAYEWNDNEMYLFRSSVAYAMRVYFSKMNKTIPFTAEDVRVSDEKKRVSFKFFVTSPTNISDIIPRSEVEDAIRMSRSRINDA
On to B1, for which the equilibrium dissociation constant (Kd) (in general, a measure of binding affinity in units of concentration) is 0.417 nM and the koff (usually the first-order rate constant of dissociation) was 5.54e-05 s⁻¹.
